The values that follow come from paper PMC9367475.

Assay [1] deals with DC-SIGN on THP-1 cells induced with PMA and IL-4 (DC-THP-1) (human (endogenous in THP-1)) (UniProt Q9NNX6).
Assay [2] addresses human DC-SIGN expressed on HEK 293T cells (DC-HEK) (human) (UniProt Q9NNX6).
Assay [3] has as its target DC-SIGN on THP-1 cells induced with PMA and IL-4 (DC-THP-1) (human (endogenous in THP-1)) (UniProt Q9NNX6). In words: cell binding assay (immunofluorescence read on a microplate reader); DC-HEK or DC-THP-1 cells in microtiter wells (1 x 10^5 cells/well); spike pseudotypes pre-incubated with or without rfhSP-D (20 µg/ml) added for 2 h at room temperature; fixed, anti-spike and Alexa Fluor 488 secondary antibody.

Assay [4] addresses human DC-SIGN expressed on HEK 293T cells (DC-HEK) (human) (UniProt Q9NNX6). The assay is described as above.

“SARS-CoV-2 spike protein on lentiviral pseudotypes (from UniProt P0DTC2 14-1273) (natural protein)” had a luciferase reporter activity (pseudotype transduction of DC-THP-1 cells), with rfhSP-D 20 µg/ml against untreated in assay [1] of 90%. In assay [2], the luciferase reporter activity (pseudotype transduction of DC-HEK cells), with rfhSP-D 20 µg/ml against untreated is 190%.
Regarding “SARS-CoV-2 spike protein on lentiviral pseudotypes (from UniProt P0DTC2 14-1273) (natural protein; other documents disagree on this pair)”, the increase of binding with rfhSP-D (20 µg/ml) against untreated in assay [3] turned out to be 25%; in assay [4], 50%.
